We go through 1 molecule from US20130244255A1 (published 2013).

The target of assay [1] is T1, GPNMB (CG56972) as expressed by human cell lines (human, UniProt Q14956 23-492).
T1 sequence: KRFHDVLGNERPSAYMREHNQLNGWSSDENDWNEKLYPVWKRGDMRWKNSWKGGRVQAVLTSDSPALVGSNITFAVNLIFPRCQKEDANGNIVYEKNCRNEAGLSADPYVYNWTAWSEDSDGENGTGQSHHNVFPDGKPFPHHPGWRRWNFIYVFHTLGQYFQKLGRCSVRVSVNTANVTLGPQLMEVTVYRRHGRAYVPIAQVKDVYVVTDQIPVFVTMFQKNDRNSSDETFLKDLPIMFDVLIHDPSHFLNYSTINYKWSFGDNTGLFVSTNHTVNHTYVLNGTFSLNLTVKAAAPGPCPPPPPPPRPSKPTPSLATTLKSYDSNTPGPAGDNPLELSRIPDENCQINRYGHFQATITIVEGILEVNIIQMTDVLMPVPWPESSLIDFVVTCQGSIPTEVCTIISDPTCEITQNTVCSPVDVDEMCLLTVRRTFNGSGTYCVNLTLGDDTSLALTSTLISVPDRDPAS
The experiment in a line: cell-based or functional assay.

In assay [2] the target is T1, GPNMB (CG56972) as expressed by human …. The experiment in a line: FACS on HT144 cells.
Assay [3] shares this target. The experiment in a line: FACS on HEMNLP cells.
The target is the same in assay [4]. As to the kind of experiment: FACS on U-251 cells, CR011 10 ug/mL.
Protocol: (§1) Quantitative analysis of CG56972 expression on the surface of cell lines was determined by flow cytometry (FACS). […] Cells were fixed in 1% paraformaldehyde/PBS and examined on a Becton Dickinson FACSCalibur flow cytometer. Data analysis was performed with Becton Dickinson Cell Quest software version 3.3 and the geometric mean fluorescence intensity ratio (GMR) was determined for each cell type.
Assay [5] has the same target. The experiment in a line: FACS on K562 cells, antibody 1 ug/mL.
Protocol: (§2) Lymphoma or leukemia derived cells were washed twice with ice-cold FACS buffer and resuspended at 1 million cells per assay tube. […] Cells were then washed 2-3 times and resuspended in 1 mL of ice-cold FACS buffer. R-PE-conjugated goat anti-human antibody at 1:100 dilution was added and cells were incubated on ice for 30 min. Cells were washed 3 times with 1 mL of ice-cold FACS buffer, fixed with 0.5-1 mL of 1% formaldehyde in PBS and analyzed by Flow Cytometry.
Assay [6] has the same target. As to the kind of experiment: FACS on KG1a cells, antibody 1 ug/mL.
Protocol: as §2
Assay [7] has the same target. The experiment in a line: FACS on THP-1 cells, antibody 1 ug/mL.
Protocol: as §2
Assay [8] shares this target. The experiment in a line: FACS on D450-MG cells, CR011 10 ug/mL.
Protocol: as §1
The target is the same in assay [9]. As to the kind of experiment: FACS on WSU-NH2 cells, antibody 1 ug/mL.
Protocol: as §2

B1: CR011 mAb 1.15.1 (IgG2) (antibody)
heavy: QVQLQESGPGLVKPSQTLSLTCTVSGGSISSFNYYWSWIRHHPGKGLEWIGYIYYSGSTYSNPSLKSRVTISVDTSKNQFSLTLSSVTAADTAVYYCARGYNWNYFDYWGQGTLVTVSSASTKGPSVFPLAPCSRSTSESTAALGCLVKDYFPEPVTVSWNSGALTSGVHTFPAVLQSSGLYSLSSVVTVPSSNFGTQTYTCNVDHKPSNTKVDKTVERKCCVECPPCPAPPVAGPSVFLFPPKPKDTLMISRTPEVTCVVVDVSHEDPEVQFNWYVDGVEVHNAKTKPREEQFNSTFRVVSVLTVVHQDWLNGKEYKCKVSNKGLPAPIEKTISKTKGQPREPQVYTLPPSREEMTKNQVSLTCLVKGFYPSDIAVEWESNGQPENNYKTTPPMLDSDGSFFLYSKLTVDKSRWQQGNVFSCSVMHEALHNHYTQKSLSLSPGK
VL: not shown
notes: also called CR011.1.15.1; CR011 IgG2
As to B1, the “killing of UACC-62 cells with saporin-conjugated secondary antibody (colony count)” value in [1] is above 70%. The entries for the “Geo Mean Ratio (relative to isotype)” value in assay [2] and in [3] were 7.4 ratio and 10.2 ratio, respectively. Further, the “CR011 Fold Shift (GMR)” value in assay [4] was determined as 1.9 fold; in [8], 1.6 fold. Moreover, the “Geo Mean Ratio” value turned out to be 2.8 ratio in assay [5], 2.7 ratio in assay [6], 6.1 ratio in assay [7] and 1 ratio in [9].
